Test results published in patent US5824638A, “Oral insulin delivery” (Shire Laboratories, Inc., priority 1995, dated 1998).

Tested on: Caco-2 cells
Assay: Transport of insulin across Caco-2 cell monolayers (Transwell, apical to basal, RIA)
Assay type: in vitro ADME, human
Settings: initial transport experiments, data not shown
Description: The Caco-2 cell line has been established as the primary screening model for oral peptide delivery. Caco-2 cells are derived from a colon cancer and differentiate in culture to form intestinal epithelium similar to that found in the small intestine. The cells form a monolayer with many of the specific properties of the epithelial lining of the intestine: they form a brush border with normal enzymes, they form tight junctions between cells, and they acquire the barrier properties of an enterocyte sheet. When grown on permeable supports these cells can be used to screen drug microemulsion formulations.
Caco-2 colon carcinoma cells were obtained from American Type Culture Collection (Rockville, Md.) and maintained in culture in high glucose DMEM with 10% fetal calf serum, plus pen/strep, at 37° C., in 5% CO2. Cells were subcultured roughly every 5-7 days, 1:3 in T75 flasks, or when cells were 80-90% confluent, as determined by visual inspection. […]
For transport determinations, insulin transport enhancers were added to HBSS plus calcium and magnesium. […] Transport was measured by taking aliquots from the lower compartment, which was in contact with the basal surface of the cells. […] Aliquots were removed from each well and insulin levels determined by RIA and HPLC. Transport was calculated as percent transport per hour from top to bottom. […]

^125 I labeled insulin: iodine-125 labeled insulin used in initial transport experiments
Transport of labeled insulin across Caco-2 cells: no increase in transport
